Common to all, as to assay type: biochemical, E. coli
In data set [1] the test system is DDPS. In words: DDPS enzyme activity and inhibition by L-lysine, cell-free extract of JE7627 transformants. The protocol: Mutant pdapA2's were recovered from the 36 strains described above. A dapA-deficient strain, JE7627 was transformed with them and the wild type pdapA2, respectively. A cell-free extract was prepared from each of the transformed strains, and the enzyme activity of DDPS was measured.
(§1) The cell-free extract (crude enzyme solution) was prepared as follows. A transformed strain was cultivated in a 2×TY medium (1.6% Bacto trypton, 1% Yeast extract, 0.5% NaCl), and collected at an optical density at 660 nm (OD660) of about 0.8. A cell pellet was washed with 0.85% NaCl under a condition of 0° C., and suspended in 20 mM potassium phosphate buffer (pH 7.5) containing 400 mM KCl. The cells were ruptured by sonication (0° C., 200 W, 10 minutes). A ruptured cell solution was centrifuged at 33 krpm for 1 hour under a condition of 0° C. to obtain a supernatant to which ammonium sulfate was added to give 80% saturation to be stored at 0° C. overnight followed by centrifugation. A pellet was dissolved in 20 mM potassium phosphate buffer (pH 7.5)-400 mM KCl.
The enzyme activity of DDPS was measured in accordance with a method of Yugari et al. (Yugari, Y. and Gilvarg, C., J. Biol. Chem., 240, 4710 (1962)). Namely, the absorbance of a reaction solution having the following composition was measured at 37° C. with a spectrophotometer at a wavelength of 270 nm in a time-dependent manner. And generated dihydrodipicolinate was measured. Sodium pyruvate was removed from the reaction system to be used as a blank.
Various concentrations of L-lysine were added to the enzyme reaction solution during measurement of the enzyme activity of DDPS, and the degree of inhibition by L-lysine was examined.

Data set [2] relates to DDPS (dihydrodipicolinate synthase). The data set can be described thus: DDPS activity of crude enzyme solutions from W3110(tyrA) strains and inhibition by L-lysine. How it is done:
as §1, with “A pellet was dissolved in 20 mM potassium phosphate buffer (pH 7.5)-400 mM KCl.” left out
The enzyme activity of DDPS was measured in accordance with a method of Yugari et al. (Yugari, Y. and Gilvarg, C., J. Biol. Chem., 240, 4710 (1962)). Namely, the absorbance of a reaction solution having the following composition was measured at 37° C. with a spectrophotometer at a wavelength of 270 nm in a time-dependent manner. And generated dihydrodipicolinate was measured. […]
Crude enzyme solutions were prepared from W3110(tyrA), W3110(tyrA)/pdapA and W3110(tyrA)/pdapA* in the same manner as in Example 1, the DDPS (dihydrodipicolinate synthase) activity was measured, and the degree of inhibition of the DDPS activity by L-lysine was examined.

Data set [3] has as its system AKIII. The data set can be described thus: AKIII enzyme activity and inhibition by L-lysine, cell-free extract of GT3 transformants. An excerpt:
No. 24, No. 43, No. 48, No. 60, No. 80, No. 117, No. 126, No. 149, No. 150, No. 156, No. 158, No. 167, No. 169 and No. 172 were selected as representative strains of the aforementioned 14 groups. Mutant plasmids derived from pLYSC1 were recovered from each of them, and designated as pLYSC1*24, pLYSC1*43, pLYSC1*48, pLYSC1*60, pLYSC1*80, pLYSC1*117, pLYSC1*126, pLYSC1*149, pLYSC1*150, pLYSC1*156, pLYSC1*158, pLYSC1*167, pLYSC1*169 and pLYSC1*172, respectively. An AK completely deficient strain GT3 was transformed with them and the wild type pLYSC1. A cell-free extract was prepared from each of transformed strains, and the enzyme activity of AKIII was measured.
The cell-free extract (crude enzyme solution) was prepared as follows. A transformed strain was cultivated in a 2×TY medium, and collected at an OD660 of about 0.8. Cells were washed with 0.02 M KH2 PO4 (pH 6.75)-0.03 M β-mercaptoethanol under a condition of 0° C., and the cells were ruptured by sonication (0° C., 100 W, 30 minutes×4). A ruptured cell solution was centrifuged at 33 krpm for 1 hour under a condition of 0° C. to obtain a supernatant,to which ammonium sulfate was added to give 80% saturation. After centrifugation, a pellet was dissolved in 0.02 M KH2 PO4 (pH 6.75)-0.03 M β-mercaptoethanol, and stored at 0° C. overnight.
The enzyme activity of AKIII was measured in accordance with a method of Stadtman et al. (Stadtman, E. R., Cohen, G. N., LeBras, G., and Robichon-Szulmajster, H., J. Biol. Chem., 236, 2033 (1961)). Namely, a reaction solution having the following composition was incubated at 27° C. for 45 minutes, and an FeCl3 solution (2.8 N HCl 0.4 ml +12% TCA 0.4 ml +5% FeCl3. 6H2 O/0.1 N HCl 0.7 ml) was added to develop a color, which was centrifuged followed by measurement of absorbance of a supernatant at 540 nm. The activity was indicated by an amount of hydroxamic acid generated per minute (1 U=1 μmol/min). The molar absorption coefficient was 600. Potassium aspartate was removed from the reaction solution to be used as a blank.
Various concentrations of L-lysine were added to the enzyme reaction solution for measurement of the enzyme activity of AK, and the degree of inhibition by L-lysine was examined.
On the contrary, the mutant AKIII's obtained this time had various degrees of desensitization, however, inhibition by L-lysine was desensitized in all of 14 species. […] The specific activity per total protein, which might be affected by growth situations of cell and preparation of samples, was equal to or more than that of the wild type in almost all cases, in which there was little problem of decrease in activity due to the introduction of mutation (Table 3). […]

[4] abbreviates: in the presence of 5 mM of L-lysine.
Setting [5] is: various concentrations of L-lysine, FIG. 2.

B1: wild type DDPS: wild type dihydrodipicolinate synthase of E. coli (dapA product) (protein, UniProt P0A6L2 1-292, looked up)
4-hydroxy-tetrahydrodipicolina …: MFTGSIVAIVTPMDEKGNVCRASLKKLIDYHVASGTSAIVSVGTTGESATLNHDEHADVVMMTLDLADGRIPVIAGTGANATAEAISLTQRFNDSGIVGCLTVTPYYNRPSQEGLYQHFKAIAEHTDLPQILYNVPSRTGCDLLPETVGRLAKVKNIIGIKEATGNLTRVNQIKELVSDDFVLLSGDDASALDFMQLGGHGVISVTANVAARDMAQMCKLAAEGHFAEARVINQRLMPLHNKLFVEPNPIPVKWACKELGLVATDTLRLPMTPITDSGRETVRAALKHAGLL
As for B1, the “Inhibition of DDPS by L-lysine” value was roughly 80% in data set [1] (setting [4]) and “suffered inhibition by L-lysine” in data set [1] (setting [5]).

B2: pdapAS24 (protein)
chain: MFTGSIVAIVTPMDEKGNVCRASLKKLIDYHVASGTSAIVSVGTTGESATLNHDEHADVVMMTLDLADGRIPVIAGTGANATAEAISLTQRFNDSGIVGCLTVTPYYNRPSQEGLYQYFKAIAEHTDLPQILYNVPSRTGCDLLPETVGRLAKVKNIIGIKEATGNLTRVNQIKELVSDDFVLLSGDDASALDFMQLGGHGVISVTTNVAARDMAQMCKLAAEEHFAEARVINQRLMPLHNKLFVEPNPIPVKWACKELGLVATDTLRLPMTPITDSGRETVRAALKHAGLL
In the case of B2, the “Specific activity of DDPS as compared with the wild type” value in data set [1] was “lowered a little”. Further, in data set [1] (setting [5]), the “Inhibition of DDPS by L-lysine” value was “desensitized”. Further, the “Specific activity relative to the wild type enzyme (DDPS)” value in data set [2] is “about 1/2”.

B3: Wild type: wild type aspartokinase III (AKIII) of E. coli encoded by lysC on pLYSC1 (protein, UniProt P08660 2-449, looked up)
Lysine-sensitive …: SEIVVSKFGGTSVADFDAMNRSADIVLSDANVRLVVLSASAGITNLLVALAEGLEPGERFEKLDAIRNIQFAILERLRYPNVIREEIERLLENITVLAEAAALATSPALTDELVSHGELMSTLLFVEILRERDVQAQWFDVRKVMRTNDRFGRAEPDIAALAELAALQLLPRLNEGLVITQGFIGSENKGRTTTLGRGGSDYTAALLAEALHASRVDIWTDVPGIYTTDPRVVSAAKRIDEIAFAEAAEMATFGAKVLHPATLLPAVRSDIPVFVGSSKDPRAGGTLVCNKTENPPLFRALALRRNQTLLTLHSLNMLHSRGFLAEVFGILARHNISVDLITTSEVSVALTLDTTGSTSTGDTLLTQSLLMELSALCRVEVEEGLALVALIGNDLSKACGVGKEVFGVLEPFNIRMICYGASSHNLCFLVPGEDAEQVVQKLHSNLFE
Take B3: the “Inhibition of AKIII by L-lysine” value in data set [3] (5 mM of L-lysine) and in data set [3] (setting [4]) was “about 100%” throughout. The molecule also had a Specific activity in data set [3] (1 U=1 μmol/min hydroxamic acid) of 0.0247 U/mg protein. In addition, the “Degree of desensitization of inhibition” value in data set [3] (AK activity in the presence of 100 mM of L-lysine with respect to AK activity in the absence of L-lysine) is listed as 0%.

These data come from US6040160A, “Method of producing L-lysine by fermentation” (Ajinomoto Co., Inc., priority 1993, dated 2000).
